In publication PMC8861134:

Tests used:
[1] = molecular target: Glucose-6-phosphate dehydrogenase E347A, tetramer-impaired synthetic mutant (human) (UniProt P11413); test: native gel or EMSA; partial native PAGE (P-Native PAGE): 850 nM protein in 50 mM Tris pH 7.4, 150 mM NaCl, 23 °C, 30 min; sample buffer without SDS and BME, not boiled, run on SDS-PAGE, Western blot, quantified with Fiji; step: dimer to monomers
[2] = molecular target: Glucose-6-phosphate dehydrogenase K403Q (human) (UniProt P11413); test: SEC; analytical SEC, Superdex 75 10/300 GL, 0.4 ml/min; 500 nM G6PD incubated 30 min at 23 °C in 80 mM sodium phosphate pH 8.0, with or without 10 μM NADP+; percentages in monomer equivalents; step: monomers to dimer

Substance	percent in monomeric form [1] [%]	percent dimer [2] [%]
Glucose-6-phosphate dehydrogenase E347A, tetramer-impaired synthetic mutant (from UniProt P11413 1-515) (enzyme)	80	–
Glucose-6-phosphate dehydrogenase K403Q (from UniProt P11413 1-515) (enzyme)	–	74
